We go through three molecules from US20100145008A1 (published 2010).

One may read the Kd as the concentration at which binding is half-saturated. Low values mean tighter binding, high ones weaker binding.

The target of this experiment is T1, lysozyme (Gallus gallus (Chicken), UniProt P00698 19-147).
T1 construct: also called Lysozyme (14.3 kDa)
In words: Biacore, preliminary data.

T1 sequence (P00698 19-147 limits assumed, form in doubt): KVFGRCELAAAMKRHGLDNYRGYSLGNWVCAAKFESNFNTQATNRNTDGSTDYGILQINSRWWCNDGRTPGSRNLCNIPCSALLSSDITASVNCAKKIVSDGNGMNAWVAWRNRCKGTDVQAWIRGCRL

B1: Lys_B3 (designed binder)
chain: GSVKVKFDLCGEEKEVDTSKIVYVARDGKTVLFMYDDNGKSGRGEVSEKDAPKELLDMLARAEREKKL
In turn, B1 displayed a Kd of around 15 nM.

B2: Lys_H8 (designed binder)
chain: GSVKVKFVMCGEEKEVDTSKIITVKRTGKEVDFLYDDNGKNGYGTVYEKDAPKELLDMLARAEREKKL
Molecule B2 yielded a Kd of around 25 nM.

B3: Lys_H4 (designed binder)
chain: GSVKVKFFWNGEEKEVDTSKIVWVKRAGKCVLFIYDDNGKNGYGDVTEKDAPKELLDMLARAEREKKL
For B3, the Kd is around 3 nM.
